B1: CFP0015 15L 50S (antibody, V domains shown)
VH: QVQLLESGGGLVQPGGSLRLSCAASGFTFSSYAMSWVRQAPGKGLEWVSAISGSGGSTYYADSVKGRFTISRDNSKNTLYLQMNSLRAEDTAVYYCARGDQIWYDQWYYFDMWGQGTLVTVSS
VL: DIQMTQSPSSLSASVGDRVTITCRASQSIEDDLAWYQQKPGKAPKLLIYSASNLQSGVPSRFSGSGSGTDFTLTISSLQPEDFATYYCQQYDSSPLTFGQGTKVEIK
B2: CFP0015 15L 93D (antibody, V domains shown)
VH: QVQLLESGGGLVQPGGSLRLSCAASGFTFSSYAMSWVRQAPGKGLEWVSAISGSGGSTYYADSVKGRFTISRDNSKNTLYLQMNSLRAEDTAVYYCARGDQIWYDQWYYFDMWGQGTLVTVSS
VL: DIQMTQSPSSLSASVGDRVTITCRASQSIEDDLAWYQQKPGKAPKLLIYEASNLQSGVPSRFSGSGSGTDFTLTISSLQPEDFATYYCQQYDDSPLTFGQGTKVEIK
B3: CFP0015 15L 91Q (antibody, V domains shown)
VH: QVQLLESGGGLVQPGGSLRLSCAASGFTFSSYAMSWVRQAPGKGLEWVSAISGSGGSTYYADSVKGRFTISRDNSKNTLYLQMNSLRAEDTAVYYCARGDQIWYDQWYYFDMWGQGTLVTVSS
VL: DIQMTQSPSSLSASVGDRVTITCRASQSIEDDLAWYQQKPGKAPKLLIYEASNLQSGVPSRFSGSGSGTDFTLTISSLQPEDFATYYCQQQDSSPLTFGQGTKVEIK
B4: CFP0015 15L 53S (antibody, V domains shown)
VH: QVQLLESGGGLVQPGGSLRLSCAASGFTFSSYAMSWVRQAPGKGLEWVSAISGSGGSTYYADSVKGRFTISRDNSKNTLYLQMNSLRAEDTAVYYCARGDQIWYDQWYYFDMWGQGTLVTVSS
VL: DIQMTQSPSSLSASVGDRVTITCRASQSIEDDLAWYQQKPGKAPKLLIYEASSLQSGVPSRFSGSGSGTDFTLTISSLQPEDFATYYCQQYDSSPLTFGQGTKVEIK
B5: CFP0015 15L 92Q (antibody, V domains shown)
VH: QVQLLESGGGLVQPGGSLRLSCAASGFTFSSYAMSWVRQAPGKGLEWVSAISGSGGSTYYADSVKGRFTISRDNSKNTLYLQMNSLRAEDTAVYYCARGDQIWYDQWYYFDMWGQGTLVTVSS
VL: DIQMTQSPSSLSASVGDRVTITCRASQSIEDDLAWYQQKPGKAPKLLIYEASNLQSGVPSRFSGSGSGTDFTLTISSLQPEDFATYYCQQYQSSPLTFGQGTKVEIK
B6: CFP0015 15L 91E (antibody, V domains shown)
VH: QVQLLESGGGLVQPGGSLRLSCAASGFTFSSYAMSWVRQAPGKGLEWVSAISGSGGSTYYADSVKGRFTISRDNSKNTLYLQMNSLRAEDTAVYYCARGDQIWYDQWYYFDMWGQGTLVTVSS
VL: DIQMTQSPSSLSASVGDRVTITCRASQSIEDDLAWYQQKPGKAPKLLIYEASNLQSGVPSRFSGSGSGTDFTLTISSLQPEDFATYYCQQEDSSPLTFGQGTKVEIK
B7: CFP0015 15L 92E (antibody, V domains shown)
VH: QVQLLESGGGLVQPGGSLRLSCAASGFTFSSYAMSWVRQAPGKGLEWVSAISGSGGSTYYADSVKGRFTISRDNSKNTLYLQMNSLRAEDTAVYYCARGDQIWYDQWYYFDMWGQGTLVTVSS
VL: DIQMTQSPSSLSASVGDRVTITCRASQSIEDDLAWYQQKPGKAPKLLIYEASNLQSGVPSRFSGSGSGTDFTLTISSLQPEDFATYYCQQYESSPLTFGQGTKVEIK
B8: CFP0015 15L 92P (antibody, V domains shown)
VH: QVQLLESGGGLVQPGGSLRLSCAASGFTFSSYAMSWVRQAPGKGLEWVSAISGSGGSTYYADSVKGRFTISRDNSKNTLYLQMNSLRAEDTAVYYCARGDQIWYDQWYYFDMWGQGTLVTVSS
VL: DIQMTQSPSSLSASVGDRVTITCRASQSIEDDLAWYQQKPGKAPKLLIYEASNLQSGVPSRFSGSGSGTDFTLTISSLQPEDFATYYCQQYPSSPLTFGQGTKVEIK
B9: CFP0015 15L 91D (antibody, V domains shown)
VH: QVQLLESGGGLVQPGGSLRLSCAASGFTFSSYAMSWVRQAPGKGLEWVSAISGSGGSTYYADSVKGRFTISRDNSKNTLYLQMNSLRAEDTAVYYCARGDQIWYDQWYYFDMWGQGTLVTVSS
VL: DIQMTQSPSSLSASVGDRVTITCRASQSIEDDLAWYQQKPGKAPKLLIYEASNLQSGVPSRFSGSGSGTDFTLTISSLQPEDFATYYCQQDDSSPLTFGQGTKVEIK
B10: CFP0015 15L 50Y (antibody, V domains shown)
VH: QVQLLESGGGLVQPGGSLRLSCAASGFTFSSYAMSWVRQAPGKGLEWVSAISGSGGSTYYADSVKGRFTISRDNSKNTLYLQMNSLRAEDTAVYYCARGDQIWYDQWYYFDMWGQGTLVTVSS
VL: DIQMTQSPSSLSASVGDRVTITCRASQSIEDDLAWYQQKPGKAPKLLIYYASNLQSGVPSRFSGSGSGTDFTLTISSLQPEDFATYYCQQYDSSPLTFGQGTKVEIK
B11: CFP0015 15L 91T (antibody, V domains shown)
VH: QVQLLESGGGLVQPGGSLRLSCAASGFTFSSYAMSWVRQAPGKGLEWVSAISGSGGSTYYADSVKGRFTISRDNSKNTLYLQMNSLRAEDTAVYYCARGDQIWYDQWYYFDMWGQGTLVTVSS
VL: DIQMTQSPSSLSASVGDRVTITCRASQSIEDDLAWYQQKPGKAPKLLIYEASNLQSGVPSRFSGSGSGTDFTLTISSLQPEDFATYYCQQTDSSPLTFGQGTKVEIK
B12: CFP0015 15L 92T (antibody, V domains shown)
VH: QVQLLESGGGLVQPGGSLRLSCAASGFTFSSYAMSWVRQAPGKGLEWVSAISGSGGSTYYADSVKGRFTISRDNSKNTLYLQMNSLRAEDTAVYYCARGDQIWYDQWYYFDMWGQGTLVTVSS
VL: DIQMTQSPSSLSASVGDRVTITCRASQSIEDDLAWYQQKPGKAPKLLIYEASNLQSGVPSRFSGSGSGTDFTLTISSLQPEDFATYYCQQYTSSPLTFGQGTKVEIK
B13: CFP0015 15L 93N (antibody, V domains shown)
VH: QVQLLESGGGLVQPGGSLRLSCAASGFTFSSYAMSWVRQAPGKGLEWVSAISGSGGSTYYADSVKGRFTISRDNSKNTLYLQMNSLRAEDTAVYYCARGDQIWYDQWYYFDMWGQGTLVTVSS
VL: DIQMTQSPSSLSASVGDRVTITCRASQSIEDDLAWYQQKPGKAPKLLIYEASNLQSGVPSRFSGSGSGTDFTLTISSLQPEDFATYYCQQYDNSPLTFGQGTKVEIK
B14: CFP0015 15L 50T (antibody, V domains shown)
VH: QVQLLESGGGLVQPGGSLRLSCAASGFTFSSYAMSWVRQAPGKGLEWVSAISGSGGSTYYADSVKGRFTISRDNSKNTLYLQMNSLRAEDTAVYYCARGDQIWYDQWYYFDMWGQGTLVTVSS
VL: DIQMTQSPSSLSASVGDRVTITCRASQSIEDDLAWYQQKPGKAPKLLIYTASNLQSGVPSRFSGSGSGTDFTLTISSLQPEDFATYYCQQYDSSPLTFGQGTKVEIK
B15: CFP0015 15L 92S (antibody, V domains shown)
VH: QVQLLESGGGLVQPGGSLRLSCAASGFTFSSYAMSWVRQAPGKGLEWVSAISGSGGSTYYADSVKGRFTISRDNSKNTLYLQMNSLRAEDTAVYYCARGDQIWYDQWYYFDMWGQGTLVTVSS
VL: DIQMTQSPSSLSASVGDRVTITCRASQSIEDDLAWYQQKPGKAPKLLIYEASNLQSGVPSRFSGSGSGTDFTLTISSLQPEDFATYYCQQYSSSPLTFGQGTKVEIK
B16: CFP0015 15L 91H (antibody, V domains shown)
VH: QVQLLESGGGLVQPGGSLRLSCAASGFTFSSYAMSWVRQAPGKGLEWVSAISGSGGSTYYADSVKGRFTISRDNSKNTLYLQMNSLRAEDTAVYYCARGDQIWYDQWYYFDMWGQGTLVTVSS
VL: DIQMTQSPSSLSASVGDRVTITCRASQSIEDDLAWYQQKPGKAPKLLIYEASNLQSGVPSRFSGSGSGTDFTLTISSLQPEDFATYYCQQHDSSPLTFGQGTKVEIK
B17: CFP0015 15L 91R (antibody, V domains shown)
VH: QVQLLESGGGLVQPGGSLRLSCAASGFTFSSYAMSWVRQAPGKGLEWVSAISGSGGSTYYADSVKGRFTISRDNSKNTLYLQMNSLRAEDTAVYYCARGDQIWYDQWYYFDMWGQGTLVTVSS
VL: DIQMTQSPSSLSASVGDRVTITCRASQSIEDDLAWYQQKPGKAPKLLIYEASNLQSGVPSRFSGSGSGTDFTLTISSLQPEDFATYYCQQRDSSPLTFGQGTKVEIK
B18: CFP0015 15L 91S (antibody, V domains shown)
VH: QVQLLESGGGLVQPGGSLRLSCAASGFTFSSYAMSWVRQAPGKGLEWVSAISGSGGSTYYADSVKGRFTISRDNSKNTLYLQMNSLRAEDTAVYYCARGDQIWYDQWYYFDMWGQGTLVTVSS
VL: DIQMTQSPSSLSASVGDRVTITCRASQSIEDDLAWYQQKPGKAPKLLIYEASNLQSGVPSRFSGSGSGTDFTLTISSLQPEDFATYYCQQSDSSPLTFGQGTKVEIK
B19: CFP0015 15L 93G (antibody, V domains shown)
VH: QVQLLESGGGLVQPGGSLRLSCAASGFTFSSYAMSWVRQAPGKGLEWVSAISGSGGSTYYADSVKGRFTISRDNSKNTLYLQMNSLRAEDTAVYYCARGDQIWYDQWYYFDMWGQGTLVTVSS
VL: DIQMTQSPSSLSASVGDRVTITCRASQSIEDDLAWYQQKPGKAPKLLIYEASNLQSGVPSRFSGSGSGTDFTLTISSLQPEDFATYYCQQYDGSPLTFGQGTKVEIK
B20: CFP0015 15L 53H (antibody, V domains shown)
VH: QVQLLESGGGLVQPGGSLRLSCAASGFTFSSYAMSWVRQAPGKGLEWVSAISGSGGSTYYADSVKGRFTISRDNSKNTLYLQMNSLRAEDTAVYYCARGDQIWYDQWYYFDMWGQGTLVTVSS
VL: DIQMTQSPSSLSASVGDRVTITCRASQSIEDDLAWYQQKPGKAPKLLIYEASHLQSGVPSRFSGSGSGTDFTLTISSLQPEDFATYYCQQYDSSPLTFGQGTKVEIK
B21: CFP0015 15L 53T (antibody, V domains shown)
VH: QVQLLESGGGLVQPGGSLRLSCAASGFTFSSYAMSWVRQAPGKGLEWVSAISGSGGSTYYADSVKGRFTISRDNSKNTLYLQMNSLRAEDTAVYYCARGDQIWYDQWYYFDMWGQGTLVTVSS
VL: DIQMTQSPSSLSASVGDRVTITCRASQSIEDDLAWYQQKPGKAPKLLIYEASTLQSGVPSRFSGSGSGTDFTLTISSLQPEDFATYYCQQYDSSPLTFGQGTKVEIK

These binders were tested against T1, human C5 (human, UniProt P01031 19-673; P01031 678-1676, Beta and alpha chains are disulfide-linked and the protein is glycosylated.) (assay: Biacore, captured antibody, pH 7.4, 37 C;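 also: biacore binding response of anti-C5 antibody light chain variants captured on chip with human C5 injected, ACES running buffer containing 1.2 mM CaCl₂, parent light chain antibody set to 100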).
T1 construct: Either in-house recombinant C5 or plasma derived C5 (CALBIOCHEM) was used; also called recombinant human C5; plasma derived human C5
Method: The light chain variants were tested for the binding affinity to C5 at pH 7.4 and at 37 degrees C. using Biacore T200 instrument (GE Healthcare) or Biacore 4000 instrument (GE Healthcare). […] Anti-C5 antibodies were captured on an immobilized molecule, and then human C5 was injected. The running buffer used was pH 7.4 ACES Buffer containing 1.2 mM Ca (20 mM ACES, 150 mM NaCl, 1.2 mM CaCl₂, 0.05% Tween 20). A value, % binding, was determined by normalizing binding response with that of antibody comprising parent light chain as 100.

Compared with B1, B2 is higher in “% binding (parent = 100)” value: 44.2% for the first, 45.1% for the second.

Compared with B3, B4 is lower in “% binding (parent = 100)” value: 96.4% for the first, 73.6% for the second.

Compared with B5, B6 is lower in “% binding (parent = 100)” value: 59.7% for the first, 30.1% for the second.

Going from B7 to B8, the “% binding (parent = 100)” value falls from 99.8% to 21.7%.

Going from B9 to B10, the “% binding (parent = 100)” value rises from 20.4% to 46.9%.

Compared with B11, B12 is higher in “% binding (parent = 100)” value: 50.7% for the first, 74.1% for the second.

Compared with B13, B14 is lower in “% binding (parent = 100)” value: 80.4% for the first, 26.9% for the second.

Compared with B15, B16 is higher in “% binding (parent = 100)” value: 51.3% for the first, 81.5% for the second.

Going from B17 to B18, the “% binding (parent = 100)” value rises from 2.4% to 27.3%.

Compared with B19, B20 is higher in “% binding (parent = 100)” value: 78.6% for the first, 80.8% for the second.

B21 was tested, and the “% binding (parent = 100)” value was 75.8%.

— patent publication US20180016327A1 (Chugai, published 2018)
